B1: Low-density lipoprotein receptor-related protein 6 (Homo sapiens), O75581 (parent)
chain: MGAVLRSLLACSFCVLLRAAPLLLYANRRDLRLVDATNGKENATIVVGGLEDAAAVDFVFSHGLIYWSDVSEEAIKRTEFNKTESVQNVVVSGLLSPDGLACDWLGEKLYWTDSETNRIEVSNLDGSLRKVLFWQELDQPRAIALDPSSGFMYWTDWGEVPKIERAGMDGSSRFIIINSEIYWPNGLTLDYEEQKLYWADAKLNFIHKSNLDGTNRQAVVKGSLPHPFALTLFEDILYWTDWSTHSILACNKYTGEGLREIHSDIFSPMDIHAFSQQRQPNATNPCGIDNGGCSHLCLMSPVKPFYQCACPTGVKLLENGKTCKDGATELLLLARRTDLRRISLDTPDFTDIVLQLEDIRHAIAIDYDPVEGYIYWTDDEVRAIRRSFIDGSGSQFVVTAQIAHPDGIAVDWVARNLYWTDTGTDRIEVTRLNGTMRKILISEDLEEPRAIVLDPMVGYMYWTDWGEIPKIERAALDGSDRVVLVNTSLGWPNGLALDYDEGKIYWGDAKTDKIEVMNTDGTGRRVLVEDKIPHIFGFTLLGDYVYWTDWQRRSIERVHKRSAEREVIIDQLPDLMGLKATNVHRVIGSNPCAEENGGCSHLCLYRPQGLRCACPIGFELISDMKTCIVPEAFLLFSRRADIRRISLETNNNNVAIPLTGVKEASALDFDVTDNRIYWTDISLKTISRAFMNGSALEHVVEFGLDYPEGMAVDWLGKNLYWADTGTNRIEVSKLDGQHRQVLVWKDLDSPRALALDPAEGFMYWTEWGGKPKIDRAAMDGSERTTLVPNVGRANGLTIDYAKRRLYWTDLDTNLIESSNMLGLNREVIADDLPHPFGLTQYQDYIYWTDWSRRSIERANKTSGQNRTIIQGHLDYVMDILVFHSSRQSGWNECASSNGHCSHLCLAVPVGGFVCGCPAHYSLNADNRTCSAPTTFLLFSQKSAINRMVIDEQQSPDIILPIHSLRNVRAIDYDPLDKQLYWIDSRQNMIRKAQEDGSQGFTVVVSSVPSQNLEIQPYDLSIDIYSRYIYWTCEATNVINVTRLDGRSVGVVLKGEQDRPRAVVVNPEKGYMYFTNLQERSPKIERAALDGTEREVLFFSGLSKPIALALDSRLGKLFWADSDLRRIESSDLSGANRIVLEDSNILQPVGLTVFENWLYWIDKQQQMIEKIDMTGREGRTKVQARIAQLSDIHAVKELNLQEYRQHPCAQDNGGCSHICLVKGDGTTRCSCPMHLVLLQDELSCGEPPTCSPQQFTCFTGEIDCIPVAWRCDGFTECEDHSDELNCPVCSESQFQCASGQCIDGALRCNGDANCQDKSDEKNCEVLCLIDQFRCANGQCIGKHKKCDHNVDCSDKSDELDCYPTEEPAPQATNTVGSVIGVIVTIFVSGTVYFICQRMLCPRMKGDGETMTNDYVVHGPASVPLGYVPHPSSLSGSLPGMSRGKSMISSLSIMGGSSGPPYDRAHVTGASSSSSSSTKGTYFPAILNPPPSPATERSHYTMEFGYSSNSPSTHRSYSYRPYSYRHFAPPTTPCSTDVCDSDYAPSRRMTSVATAKGYTSDLNYDSEPVPPPPTPRSQYLSAEENYESCPPSPYTERSYSHHLYPPPPSPCTDSS
partner: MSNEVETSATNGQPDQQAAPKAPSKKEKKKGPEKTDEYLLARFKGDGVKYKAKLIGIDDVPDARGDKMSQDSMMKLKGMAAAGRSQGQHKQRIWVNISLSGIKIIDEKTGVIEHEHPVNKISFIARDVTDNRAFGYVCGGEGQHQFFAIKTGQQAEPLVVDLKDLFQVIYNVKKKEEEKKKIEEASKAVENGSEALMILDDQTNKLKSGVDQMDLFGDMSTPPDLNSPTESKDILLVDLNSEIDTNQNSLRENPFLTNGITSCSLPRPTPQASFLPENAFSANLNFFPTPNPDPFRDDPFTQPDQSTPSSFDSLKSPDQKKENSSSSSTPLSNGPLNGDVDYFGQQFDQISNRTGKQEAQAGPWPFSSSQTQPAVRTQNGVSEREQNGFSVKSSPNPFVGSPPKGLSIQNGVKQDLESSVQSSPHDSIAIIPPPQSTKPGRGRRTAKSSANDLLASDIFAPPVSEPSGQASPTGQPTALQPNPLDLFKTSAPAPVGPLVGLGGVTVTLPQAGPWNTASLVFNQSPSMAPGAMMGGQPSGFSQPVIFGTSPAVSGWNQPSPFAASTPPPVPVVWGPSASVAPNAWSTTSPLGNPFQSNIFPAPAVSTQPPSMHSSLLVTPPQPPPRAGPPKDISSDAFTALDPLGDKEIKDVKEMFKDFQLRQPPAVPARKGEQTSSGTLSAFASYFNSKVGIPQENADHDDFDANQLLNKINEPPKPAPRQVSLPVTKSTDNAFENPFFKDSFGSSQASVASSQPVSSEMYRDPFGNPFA

Variants of: B1
Conditions: with dab2_human DAB2, P98082

| Variant | effect of a mutation on the interaction |
| --- | --- |
| S1590A | decreasing interaction |

Variants of: B1
Conditions: with dab2_human DAB2, P98082
Remark: another data set of the same source

| Variant | effect of a mutation on the interaction |
| --- | --- |
| T1593A | decreasing interaction |

Variants of: B1
Conditions: with dab2_human DAB2, P98082
Remark: another data set of the same source

| Variant | effect of a mutation on the interaction |
| --- | --- |
| Y1577A | decreasing interaction |

Variants of: B1
Conditions: with dab2_human DAB2, P98082
Remark: another data set of the same source

| Variant | effect of a mutation on the interaction |
| --- | --- |
| Y1584A | decreasing interaction |

Variants of: B1
Conditions: with dab2_human DAB2, P98082
Remark: another data set of the same source

| Variant | effect of a mutation on the interaction |
| --- | --- |
| T1572A | decreasing interaction |

Variants of: B1
Conditions: with dab2_human DAB2, P98082
Remark: another data set of the same source

| Variant | effect of a mutation on the interaction |
| --- | --- |
| Y1592A | decreasing interaction |

Variants of: B1
Conditions: with dab2_human DAB2, P98082
Remark: another data set of the same source

| Variant | effect of a mutation on the interaction |
| --- | --- |
| S1579A | disrupting interaction |

Variants of: B1
Conditions: with dab2_human DAB2, P98082
Remark: another data set of the same source

| Variant | effect of a mutation on the interaction |
| --- | --- |
| S1586A | decreasing interaction |

Variants of: B1
Conditions: with dab2_human DAB2, P98082
Remark: another data set of the same source

| Variant | effect of a mutation on the interaction |
| --- | --- |
| S1598A | increasing interaction |

Variants of: B1
Conditions: with dab2_human DAB2, P98082
Remark: another data set of the same source

| Variant | effect of a mutation on the interaction |
| --- | --- |
| S1607A | decreasing interaction |

Variants of: B1
Conditions: with dab2_human DAB2, P98082
Remark: another data set of the same source

| Variant | effect of a mutation on the interaction |
| --- | --- |
| T1610A | decreasing interaction |

Variants of: B1
Conditions: with dab2_human DAB2, P98082
Remark: another data set of the same source

| Variant | effect of a mutation on the interaction |
| --- | --- |
| S1596A | decreasing interaction |

Variants of: B1
Conditions: with dab2_human DAB2, P98082
Remark: another data set of the same source

| Variant | effect of a mutation on the interaction |
| --- | --- |
| S1575A | decreasing interaction |

Variants of: B1
Conditions: with dab2_human DAB2, P98082
Remark: another data set of the same source

| Variant | effect of a mutation on the interaction |
| --- | --- |
| S1613A | increasing interaction |
